{"source": "patent US20230050449A1", "about": "“METHODS FOR TREATING CANCER USING A COMBINATION OF A PD-1 ANTAGONIST, AN ILT4 ANTAGONIST, AND CHEMOTHERAPEUTIC AGENTS” (Merck Sharp & Dohme LLC, priority 2019, published 2023)", "system": "participants with advanced solid tumors", "experiment": "Phase 1 open label, multi-arm, multi-center study of MK-4830 as monotherapy or in combination with pembrolizumab (NCT03564691): safety and tolerability", "format": "in vivo, human", "description": "A phase 1 open label, multi-arm, multi-center study of an anti-ILT4 antibody (“MK-4830”) as monotherapy or in combination with pembrolizumab for participants with advanced solid tumors has been ongoing (NCT03564691).\nAt the time of the May 10, 2019 data cutoff, a total of 51 participants had received at least 1 dose of MK-4830. In the ongoing MK-4830 monotherapy phase, MK-4830 monotherapy had reached the maximum planned dose level of 1600 mg. In the ongoing MK-4830 plus pembrolizumab combination phase, MK-4830 dose level had reached a maximum dose of 800 mg.\nThe target dose limiting toxicity (DLT) rate was not reached in any of the cohorts and the maximum tolerated dose (MTD) was not defined.\nThe most common study-drug related AEs in all participants were arthralgia (9.8%), fatigue (9.8%), decreased appetite (7.8%), diarrhea (7.8%), and pruritus (7.8%). There was one episode of transient Grade 3 blood pressure increase at the 1600 mg dose level in the MK-4830 monotherapy cohort. There were no Grade 4 or 5 drug-related AEs or SAEs.", "key": {"[1]": {"settings": "of the total 51 treated participants, preliminary data"}}}
{"substance": "MK-4830: anti-ILT4 antibody; light chain SEQ ID NO:5, heavy chain SEQ ID NO:10 (Table 4)", "values": [{"measurement": "episodes of transient Grade 3 blood pressure increase", "setting": "1600 mg dose level, MK-4830 monotherapy cohort", "result": "one episode"}, {"measurement": "grade of the majority of drug-related AEs", "setting": "51 treated participants, preliminary data", "result": "Grade 1"}, {"measurement": "Grade 4 or 5 drug-related AEs or SAEs", "setting": "all 51 treated participants", "result": "no"}, {"measurement": "study-drug related AE: arthralgia", "setting": "all participants (51 treated)", "result": 9.8, "unit": "%"}, {"measurement": "study-drug related AE: decreased appetite", "setting": "all participants (51 treated)", "result": 7.8, "unit": "%"}, {"measurement": "study-drug related AE: diarrhea", "setting": "all participants (51 treated)", "result": 7.8, "unit": "%"}, {"measurement": "study-drug related AE: fatigue", "setting": "all participants (51 treated)", "result": 9.8, "unit": "%"}, {"measurement": "study-drug related AE: pruritus", "setting": "all participants (51 treated)", "result": 7.8, "unit": "%"}, {"measurement": "target dose limiting toxicity (DLT) rate", "setting": "any of the cohorts, monotherapy up to 1600 mg, combination with pembrolizumab up to 800 mg, May 10, 2019 data cutoff", "result": "not reached"}, {"measurement": "maximum tolerated dose (MTD)", "setting": "monotherapy up to 1600 mg, combination with pembrolizumab up to 800 mg, May 10, 2019 data cutoff", "result": "not defined"}, {"measurement": "participants with one or more drug-related AEs (number)", "setting": "[1]", "result": 26}, {"measurement": "participants with one or more drug-related AEs (percent)", "setting": "[1]", "result": 51, "unit": "%"}]}
